Values of other authors, collected in paper PMC4004251.

What was measured:
Conditions in all cases: folded GB1 (the article states the structure is stable above pH 3)
Glu15 = Glu15 (UniProt position 241, KTLKGETTTEA)
Glu27 = Glu27 (UniProt position 253, DAATAEKVFKQ)
Glu42 = Glu42 (UniProt position 268, NGVDGEWTYDD)

**Q.** For “Immunoglobulin G-binding protein G, B1 domain (GB1) (Streptococcus sp. group G)”, which pKa (Glu15) is on record?
**A.** near 4.5

**Q.** And the pKa (Glu27)?
**A.** about 4.5

**Q.** And the pKa (Glu42)?
**A.** about 4.5
